The text below walks through data of paper PMC2556791 (The Journal of Experimental Medicine, 2008).

Experiment [1] concerns the target mCMKLR1-HA on L1.2 transfectants (mouse) (UniProt P97468). As to the kind of experiment: radioligand binding.
Experiment [2] concerns the target huCCRL2-HA on L1.2 transfectants (human). As to the kind of experiment: radioligand binding.
Experiment [3] deals with mCCRL2 on freshly isolated mouse peritoneal mast cells (mouse (endogenous in peritoneal mast cells)) (UniProt O35457). As to the kind of experiment: flow cytometry on cells.
The target in experiment [4] is T1, mCCRL2-HA on L1.2 transfectants (mouse, UniProt O35457 1-360).
T1 sequence (looked up): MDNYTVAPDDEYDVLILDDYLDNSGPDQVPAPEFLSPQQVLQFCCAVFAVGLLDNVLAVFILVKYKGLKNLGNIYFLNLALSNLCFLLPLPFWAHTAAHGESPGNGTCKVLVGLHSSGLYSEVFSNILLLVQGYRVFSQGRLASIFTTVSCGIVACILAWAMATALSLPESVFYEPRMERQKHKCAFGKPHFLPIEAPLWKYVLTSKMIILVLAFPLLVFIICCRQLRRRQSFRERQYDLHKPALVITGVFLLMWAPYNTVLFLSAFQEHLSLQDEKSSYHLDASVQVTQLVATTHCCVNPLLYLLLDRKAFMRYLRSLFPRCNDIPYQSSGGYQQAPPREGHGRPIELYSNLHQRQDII
As to the kind of experiment: radioligand binding.

The target in experiment [5] is T2, mCMKLR1-HA on L1.2 transfectants (mouse, UniProt P97468 1-371).
T2 sequence (looked up): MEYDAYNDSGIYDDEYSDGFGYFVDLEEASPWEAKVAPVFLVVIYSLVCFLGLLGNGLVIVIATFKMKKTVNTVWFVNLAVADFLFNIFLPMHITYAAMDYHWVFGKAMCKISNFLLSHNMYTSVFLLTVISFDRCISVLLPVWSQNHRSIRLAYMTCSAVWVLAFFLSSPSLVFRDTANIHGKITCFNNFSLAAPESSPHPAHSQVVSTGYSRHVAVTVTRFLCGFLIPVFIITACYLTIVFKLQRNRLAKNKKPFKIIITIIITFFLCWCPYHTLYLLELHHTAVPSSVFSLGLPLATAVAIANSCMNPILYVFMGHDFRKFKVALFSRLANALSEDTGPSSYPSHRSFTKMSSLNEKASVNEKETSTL
As to the kind of experiment: radioligand binding.

Experiment [6] has as its target huCCRL2-HA on L1.2 transfectants (human). As to the kind of experiment: flow cytometry on cells.
For experiment [7], the target named is T1, mCCRL2-HA on L1.2 transfectants. As to the kind of experiment: flow cytometry on cells.

Regarding “C-terminal His8-tagged serum form human chemerin (NH2-ADPELTE……-COOH) (from UniProt Q99969 21-155) (ligand)”, the EC50 in experiment [1] was determined as 26.3 nM. With “chemerin (unlabeled; form not specified) (from UniProt Q99969 21-157) (ligand)”, the figures for the EC50 in experiment [2], in experiment [1] and in experiment [3] were 0.2 nM, 3.1 nM and 21 nM, respectively.

B1: 125I-chemerin (residues 21–148) (ligand, human, UniProt Q99969 21-148, looked up)
chain: ELTEAQRRGLQVALEEFHKHPPVQWAFQETSVESAVDTPFPAGIFVRLEFKLQQTSCRKRDWKKPECKVRPNGRKRKCLACIKLGSEDKVLGRLVHCPIETQVLREAEEHQETQCLRVQRAGEDPHSF
modifications: 125I (radioiodinated; specific activity 97 Ci/g)
Molecule B1 returned a Kd in experiment [4] of 1.6 nM. YFPGQFAFS [bioactive 9-mer carboxyl-terminal chemerin peptide (residues 149–157, YFPGQFAFS)]: the EC50 in experiment [5] came to 26.2 nM. This counts as double-digit nanomolar.

B2: untagged serum form human chemerin (NH2-ADPELTE…FAPH-COOH) (ligand)
chain: ADPELTEAQRRGLQVALEEFHKHPPVQWAFQETSVESAVDTPFPAGIFVRLEFKLQQTSCRKRDWKKPECKVRPNGRKRKCLACIKLGSEDKVLGRLVHCPIETQVLREAEEHQETQCLRVQRAGEDPHSFYFPGQFAPH
As for B2, the results for the EC50 in experiment [6] and in experiment [7] were 7 nM and 45 nM, respectively.
